From patent US20160264649A1

Columns and labels:
Assay in all cases: cell-based or functional assay
[1] = molecular target: HIV-1 Env of isolate MGRM-Chronic-B-024 (HIV-1)
[2] = molecular target: HIV-1 Env of isolate MGRM-Chronic-B-020 (HIV-1)
[3] = molecular target: HIV-1 Env of isolate VLGCB3 (HIV-1)
[4] = molecular target: HIV-1 Env of isolate 97ZA012 (HIV-1)
[5] = molecular target: HIV-1 Env of isolate MGRM-Chronic-B-012 (HIV-1)
[6] = molecular target: HIV-1 Env of isolate 6535.3 (HIV-1)
[7] = molecular target: HIV-1 Env of isolate CAAN.A2 (HIV-1)
[8] = molecular target: HIV-1 Env of isolate MGRM-Chronic-B-001 (HIV-1)
[9] = molecular target: HIV-1 Env of isolate MGRM-Chronic-B-011 (HIV-1)
[10] = molecular target: HIV-1 Env of isolate APV_6 (HIV-1)
[11] = molecular target: HIV-1 Env of isolate 98IN022 (HIV-1)
[12] = molecular target: HIV-1 Env of isolate MGRM-Chronic-B-004 (HIV-1)
[13] = molecular target: HIV-1 Env of isolate MGRM-Chronic-B-002 (HIV-1)
[14] = molecular target: HIV-1 Env of isolate APV_17 (HIV-1)
[15] = molecular target: HIV-1 Env of isolate MGRM-Chronic-B-023 (HIV-1)
[16] = molecular target: HIV-1 Env of isolate APV_13 (HIV-1)
[17] = molecular target: HIV-1 Env of isolate 93IN905 (HIV-1)
[18] = molecular target: HIV-1 Env of isolate JRFL (HIV-1)
[19] = molecular target: HIV-1 Env of isolate 92 BR 020 (HIV-1)
[20] = molecular target: HIV-1 Env of isolate QH0692.42 (HIV-1)
[21] = molecular target: HIV-1 Env of isolate TRO.11 (HIV-1)
[22] = molecular target: HIV-1 Env of isolate 93MW959 (HIV-1)
[23] = molecular target: HIV-1 Env of isolate JRCSF (HIV-1) (UniProt P20871)
[24] = molecular target: HIV-1 Env of isolate SF162 (HIV-1) (UniProt P19550)
[25] = molecular target: HIV-1 Env of isolate MGRM-Chronic-B-003 (HIV-1)
[26] = molecular target: HIV-1 Env of isolate PVO.4 (HIV-1)
[27] = molecular target: HIV-1 Env of isolate MGRM-Chronic-B-017 (HIV-1)
[28] = molecular target: HIV-1 Env of isolate MGRM-Chronic-B-010 (HIV-1)
[29] = molecular target: HIV-1 Env of isolate MGRM-Chronic-B-008 (HIV-1)
[30] = molecular target: HIV-1 Env of isolate THR0.18 (HIV-1)
[31] = molecular target: HIV-1 Env of isolate 93TH305 (HIV-1)
[32] = molecular target: HIV-1 Env of isolate NL43 (HIV-1)
[33] = molecular target: HIV-1 Env of isolate MGRM-Chronic-B-018 (HIV-1)
[34] = molecular target: HIV-1 Env of isolate TRJ04551.58 (HIV-1)
[35] = molecular target: HIV-1 Env of isolate SC422661.8 (HIV-1)

Chain of PGT-137 monoclonal antibody (5345_I01) (VH): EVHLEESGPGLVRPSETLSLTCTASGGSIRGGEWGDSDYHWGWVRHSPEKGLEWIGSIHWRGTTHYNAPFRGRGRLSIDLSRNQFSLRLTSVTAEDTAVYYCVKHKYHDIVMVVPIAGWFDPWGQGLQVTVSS
Chain of PGT-137 monoclonal antibody (5345_I01) (VL): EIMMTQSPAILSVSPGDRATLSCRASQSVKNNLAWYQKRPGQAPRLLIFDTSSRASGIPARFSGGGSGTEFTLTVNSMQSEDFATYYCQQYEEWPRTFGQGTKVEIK
Chain of PGT-136 monoclonal antibody (5329_C19; 5366_P21) (VH): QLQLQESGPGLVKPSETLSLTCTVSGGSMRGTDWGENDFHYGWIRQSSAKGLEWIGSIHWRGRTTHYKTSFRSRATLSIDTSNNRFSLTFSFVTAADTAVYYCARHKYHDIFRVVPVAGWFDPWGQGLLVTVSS
Chain of PGT-136 monoclonal antibody (5329_C19; 5366_P21) (VL): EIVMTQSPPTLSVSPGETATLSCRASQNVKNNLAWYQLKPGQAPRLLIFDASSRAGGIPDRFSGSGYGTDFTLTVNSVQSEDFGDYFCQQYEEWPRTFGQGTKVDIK

| Substance | neutralization IC50 [1] | neutralization IC50 [2] | neutralization IC50 [3] | neutralization IC50 [4] | neutralization IC50 [5] | neutralization IC50 [6] | neutralization IC50 [7] | neutralization IC50 [8] | neutralization IC50 [9] | neutralization IC50 [10] | neutralization IC50 [11] | neutralization IC50 [12] | neutralization IC50 [13] | neutralization IC50 [14] | neutralization IC50 [15] | neutralization IC50 [16] | neutralization IC50 [17] | neutralization IC50 [18] | neutralization IC50 [19] | neutralization IC50 [20] | further results |
| --- | --- | --- | --- | --- | --- | --- | --- | --- | --- | --- | --- | --- | --- | --- | --- | --- | --- | --- | --- | --- | --- |
| PGT-130 monoclonal antibody (5147_N06) | 5.78 µg/mL | 0.014 µg/mL | 4.6 µg/mL | 1.32 µg/mL | 0.373 µg/mL | 0.031 µg/mL | > 50 µg/mL | > 50 µg/mL | 0.153 µg/mL | > 50 µg/mL | > 50 µg/mL | 0.01 µg/mL | > 50 µg/mL | 10.7 µg/mL | > 50 µg/mL | 0.052 µg/mL | 0.02 µg/mL | 0.046 µg/mL | 1.4 µg/mL | > 50 µg/mL | neutralization IC50 [21]: 0.257 µg/mL; neutralization IC50 [22]: 8.55 µg/mL; neutralization IC50 [23]: 0.01 µg/mL; neutralization IC50 [24]: 0.007 µg/mL; neutralization IC50 [25]: > 50 µg/mL; neutralization IC50 [26]: 5.17 µg/mL; neutralization IC50 [27]: > 50 µg/mL; neutralization IC50 [28]: 0.006 µg/mL; neutralization IC50 [29]: 5.18 µg/mL; neutralization IC50 [30]: > 50 µg/mL; neutralization IC50 [31]: 0.021 µg/mL; neutralization IC50 [32]: > 50 µg/mL; neutralization IC50 [33]: 31.9 µg/mL; neutralization IC50 [34]: 0.023 µg/mL; neutralization IC50 [35]: > 50 µg/mL |
| PGT-131 monoclonal antibody (5136_H01) | > 50 µg/mL | 0.053 µg/mL | > 50 µg/mL | 1.81 µg/mL | 15.7 µg/mL | 0.056 µg/mL | > 50 µg/mL | > 50 µg/mL | 6.47 µg/mL | > 50 µg/mL | > 50 µg/mL | 0.04 µg/mL | > 50 µg/mL | > 50 µg/mL | > 50 µg/mL | 0.189 µg/mL | 0.177 µg/mL | 0.454 µg/mL | 6.16 µg/mL | > 50 µg/mL | neutralization IC50 [21]: 1.91 µg/mL; neutralization IC50 [22]: > 50 µg/mL; neutralization IC50 [23]: 0.029 µg/mL; neutralization IC50 [24]: 0.025 µg/mL; neutralization IC50 [25]: > 50 µg/mL; neutralization IC50 [26]: > 50 µg/mL; neutralization IC50 [27]: > 50 µg/mL; neutralization IC50 [28]: 0.016 µg/mL; neutralization IC50 [29]: > 50 µg/mL; neutralization IC50 [30]: > 50 µg/mL; neutralization IC50 [31]: 0.016 µg/mL; neutralization IC50 [32]: > 50 µg/mL; neutralization IC50 [33]: > 50 µg/mL; neutralization IC50 [34]: 0.088 µg/mL; neutralization IC50 [35]: > 50 µg/mL |
| PGT-135 monoclonal antibody (5343_B08; 5344_E16) | > 50 µg/mL | 0.057 µg/mL | 0.142 µg/mL | > 50 µg/mL | 0.166 µg/mL | > 50 µg/mL | 5.15 µg/mL | > 50 µg/mL | > 50 µg/mL | > 50 µg/mL | 0.014 µg/mL | > 50 µg/mL | > 50 µg/mL | > 50 µg/mL | 0.329 µg/mL | 0.716 µg/mL | 0.011 µg/mL | > 50 µg/mL | 0.073 µg/mL | > 50 µg/mL | neutralization IC50 [21]: 0.03 µg/mL; neutralization IC50 [22]: > 50 µg/mL; neutralization IC50 [23]: 0.131 µg/mL; neutralization IC50 [24]: 0.023 µg/mL; neutralization IC50 [25]: > 50 µg/mL; neutralization IC50 [26]: > 50 µg/mL; neutralization IC50 [27]: > 50 µg/mL; neutralization IC50 [28]: > 50 µg/mL; neutralization IC50 [29]: > 50 µg/mL; neutralization IC50 [30]: > 50 µg/mL; neutralization IC50 [31]: > 50 µg/mL; neutralization IC50 [32]: 8.03 µg/mL; neutralization IC50 [33]: > 50 µg/mL; neutralization IC50 [34]: > 50 µg/mL; neutralization IC50 [35]: 21.8 µg/mL |
| PGT-136 monoclonal antibody (5329_C19; 5366_P21) | > 50 µg/mL | > 50 µg/mL | > 50 µg/mL | > 50 µg/mL | 43.1 µg/mL | > 50 µg/mL | > 50 µg/mL | > 50 µg/mL | > 50 µg/mL | > 50 µg/mL | 13.6 µg/mL | > 50 µg/mL | > 50 µg/mL | > 50 µg/mL | > 50 µg/mL | > 50 µg/mL | 0.011 µg/mL | > 50 µg/mL | 8.61 µg/mL | > 50 µg/mL | neutralization IC50 [21]: 0.073 µg/mL; neutralization IC50 [22]: > 50 µg/mL; neutralization IC50 [23]: > 50 µg/mL; neutralization IC50 [24]: 0.482 µg/mL; neutralization IC50 [25]: > 50 µg/mL; neutralization IC50 [26]: > 50 µg/mL; neutralization IC50 [27]: > 50 µg/mL; neutralization IC50 [28]: > 50 µg/mL; neutralization IC50 [29]: > 50 µg/mL; neutralization IC50 [30]: > 50 µg/mL; neutralization IC50 [31]: 20.2 µg/mL; neutralization IC50 [32]: 27.7 µg/mL; neutralization IC50 [33]: > 50 µg/mL; neutralization IC50 [34]: > 50 µg/mL; neutralization IC50 [35]: > 50 µg/mL |
| PGT-137 monoclonal antibody (5345_I01) | > 50 µg/mL | 32.9 µg/mL | 3.36 µg/mL | > 50 µg/mL | > 50 µg/mL | > 50 µg/mL | > 50 µg/mL | > 50 µg/mL | > 50 µg/mL | > 50 µg/mL | 0.408 µg/mL | > 50 µg/mL | > 50 µg/mL | > 50 µg/mL | > 50 µg/mL | > 50 µg/mL | 0.042 µg/mL | > 50 µg/mL | 7.81 µg/mL | > 50 µg/mL | neutralization IC50 [21]: 9.35 µg/mL; neutralization IC50 [22]: > 50 µg/mL; neutralization IC50 [23]: > 50 µg/mL; neutralization IC50 [24]: 3.41 µg/mL; neutralization IC50 [25]: > 50 µg/mL; neutralization IC50 [26]: > 50 µg/mL; neutralization IC50 [27]: > 50 µg/mL; neutralization IC50 [28]: > 50 µg/mL; neutralization IC50 [29]: > 50 µg/mL; neutralization IC50 [30]: > 50 µg/mL; neutralization IC50 [31]: > 50 µg/mL; neutralization IC50 [32]: 17.4 µg/mL; neutralization IC50 [33]: > 50 µg/mL; neutralization IC50 [34]: > 50 µg/mL; neutralization IC50 [35]: > 50 µg/mL |
